Reference: publication PMC7203880
Values joined by “and” are separate entries in the source; they are usually repeats but may differ in a detail not shown here. Equal values may be shown once.

Biological target: Slr0058 protein from Synechocystis sp. PCC 6803, His-tagged (Synechocystis sp. PCC 6803)
Test: SEC; Superose 6 Increase 10/300 GL on ÄKTAmicro; 100 mM KCl, 50 mM Tris-HCl pH 7.8, 5 mM MgCl2; 100 µl of Slr0058 at 0.313 mg/ml

**Q.** “Slr0058 protein from Synechocystis sp. PCC 6803, His-tagged (natural protein)” was tested. Which stoichiometry N did it give?
**A.** 2 and 3
